pKd: −log10 of the molar value.
Biological target: soluble human FcRn (human) (UniProt P55899)
Assay: SPR
Conditions: natural protein; remark: other sources report otherwise

Sequence of UniProt P55899 (P55899 24-297, chain 1 of 2): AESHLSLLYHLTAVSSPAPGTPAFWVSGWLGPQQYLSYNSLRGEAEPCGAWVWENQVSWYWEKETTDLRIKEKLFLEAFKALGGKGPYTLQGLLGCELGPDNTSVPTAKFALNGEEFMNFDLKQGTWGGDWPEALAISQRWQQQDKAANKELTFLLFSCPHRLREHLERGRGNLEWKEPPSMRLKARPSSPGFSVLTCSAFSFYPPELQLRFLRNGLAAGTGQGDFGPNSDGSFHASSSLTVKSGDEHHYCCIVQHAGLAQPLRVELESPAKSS
Sequence of UniProt P55899 (partner, as listed by the source, chain 2 of 2): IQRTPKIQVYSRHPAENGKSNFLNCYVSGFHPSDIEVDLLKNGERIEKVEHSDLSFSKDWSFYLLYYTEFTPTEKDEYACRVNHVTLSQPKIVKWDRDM

With “Recombumin-NHBn34 (from UniProt P02768 25-609)” the pKd was 4.88.
